Laboratory results published in publication PMC2659241 (The Journal of Biological Chemistry, 2009).

Target: Recombinant human moesin FERM domain (human, UniProt P26038 2-295)
Experiment: cross-linking

Chain of Recombinant human moesin FERM domain (P26038 2-295): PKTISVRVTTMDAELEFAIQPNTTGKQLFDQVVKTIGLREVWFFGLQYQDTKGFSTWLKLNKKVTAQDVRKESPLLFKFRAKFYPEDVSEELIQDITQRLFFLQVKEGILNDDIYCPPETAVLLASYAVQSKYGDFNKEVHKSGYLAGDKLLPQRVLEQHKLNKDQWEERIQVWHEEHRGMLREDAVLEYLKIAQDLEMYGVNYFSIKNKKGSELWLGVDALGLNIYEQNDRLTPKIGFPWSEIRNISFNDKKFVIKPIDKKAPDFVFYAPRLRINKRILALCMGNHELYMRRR

B1: L-selectin cytoplasmic tail peptide (peptide)
peptide: RRLKKGKKSKRSMNDPY
For B1, the “stoichiometry N” value was 1.
